Assay results published in US20260263638A1, “COMPOSITIONS AND METHODS TO IMPROVE RNA PROPERTIES USING BASE, PHOSPHODIESTER LINKAGE, SUGAR BACKBONE, AND CAP MODIFICATIONS” (The Broad Institute, Inc., priority 2023, published 2026).

Legend:
eIF4E (Homo sapiens) = assay: pulldown; conditions: LNA-m7G cap; LNA at position 1; 2'-OMe at next 5 bases; 3'-biotin; SILAC MS, vs m7G cap-0 oligo; HEK293T lysate
XRN2 (Homo sapiens) = assay: pulldown; conditions: LNA-m7G cap; LNA at position 1; 2'-OMe at next 5 bases; 3'-biotin; SILAC MS, vs m7G cap-0 oligo
CASC3 (Homo sapiens) = assay: pulldown; conditions: LNA-m7G cap; LNA at position 1; 2'-OMe at next 5 bases; 3'-biotin; SILAC MS, vs m7G cap-0 oligo
eIF2B (Homo sapiens) = assay: pulldown; conditions: LNA-m7G cap; LNA at position 1; 2'-OMe at next 5 bases; 3'-biotin; SILAC MS, vs m7G cap-0 oligo
NCBP1 (Homo sapiens) = assay: pulldown; conditions: LNA-m7G cap; LNA at position 1; 2'-OMe at next 5 bases; 3'-biotin; SILAC MS, vs m7G cap-0 oligo
eIF3A (Homo sapiens) = assay: pulldown; conditions: LNA-m7G cap; LNA at position 1; 2'-OMe at next 5 bases; 3'-biotin; SILAC MS, vs m7G cap-0 oligo; may be indirect
eIF4G1 (Homo sapiens) = assay: pulldown; conditions: LNA-m7G cap; LNA at position 1; 2'-OMe at next 5 bases; 3'-biotin; SILAC MS, vs m7G cap-0 oligo; may be indirect via eIF4E
PABPC4 (Homo sapiens) = assay: pulldown; conditions: LNA-m7G cap; LNA at position 1; 2'-OMe at next 5 bases; 3'-biotin; SILAC MS, vs m7G cap-0 oligo; may be indirect
eIF4G3 (Homo sapiens) = assay: pulldown; conditions: LNA-m7G cap; LNA at position 1; 2'-OMe at next 5 bases; 3'-biotin; SILAC MS, vs m7G cap-0 oligo; may be indirect
eIF4A1 (Homo sapiens) = assay: pulldown; conditions: LNA-m7G cap; LNA at position 1; 2'-OMe at next 5 bases; 3'-biotin; SILAC MS, vs m7G cap-0 oligo; may be indirect
DHX15 (Homo sapiens) = assay: pulldown; conditions: LNA-m7G cap; LNA at position 1; 2'-OMe at next 5 bases; 3'-biotin; SILAC MS, vs m7G cap-0 oligo
PABPC1 (Homo sapiens) = assay: pulldown; conditions: LNA-m7G cap; LNA at position 1; 2'-OMe at next 5 bases; 3'-biotin; SILAC MS, vs m7G cap-0 oligo; may be indirect
PARN (Homo sapiens) = assay: pulldown; conditions: LNA-m7G cap; LNA at position 1; 2'-OMe at next 5 bases; 3'-biotin; SILAC MS, vs m7G cap-0 oligo
HeLa cells = assay: Time-course dual luciferase assay of modified Firefly luciferase mRNA (Renilla control); format: cell-based; conditions: from 8~72 hours
[1] = tested on: plasma tumor necrosis factor alpha (TNF-α); design: species or system mice; conditions: mouse, in vivo
Procedure: (§1) To evaluate the in vivo toxicity and immune response, plasma collected on day 7 post mRNA-LNP administration for the hEPO group. ALT and TNF-alpha were measured using ELISA kits for ALT [G-Biosciences, IT5508] and TNF-alpha [R&D Systems, MTA00B] per manufacturer's protocols.

[2] = Quantification of plasma hEPO by ELISA after mRNA-LNP injection; format: in vivo; conditions: mice, hEPO mRNA-LNP retro-orbital
Procedure: All animal procedures followed animal care guidelines approved by the Institutional Animal Care and Use Committee (IACUC) of the Broad Institute of MIT and Harvard under animal protocol #0255-08-19. Animal experiments were conducted in compliance with IACUC policies and NIH guidelines. The BALB/cj (male, 6~8 weeks old) mice used for in vivo NanoLuc assay in this study were purchased from The Jackson Laboratory (JAX). The C57BL/6 mice (female, 7 weeks old), used for hEPO assay in this study were purchased from The Jackson Laboratory (JAX).
(§2) mRNA diluted in 50 mM citrate buffer (pH 4) and lipid mix (37.5 mM in ethanol) containing 50 mol % SM-102, 10 mol % DSPC, 38.5 mol % Cholesterol, and 1.5 mol % DMG-PEG2000 were assembled into LNP using a NanoAssemblr Spark instrument [Precision Nanosystems]. Upon formulation, mRNA-LNPs were diluted in 12 mL 1×PBS solution and the buffer was exchanged by concentrating with a 30 kDa spin filter [MilliporeSigma, UFC901008] to remove residue ethanol. Concentrations and encapsulation efficiency of mRNA were determined using Quant-it RiboGreen RNA Assay Kit [ThermoFisher, R11490]. 1 μg NanoLuc or hEPO mRNA-LNP in a total volume of 100 μL was injected through retro orbital injection into each mouse. Four mice were used for each condition of each experiment (NanoLuc imaging, hEPO ELISA, and reticulocyte counting). For NanoLuc imaging, PBS injection was used as negative control. For hEPO/reticulocyte experiments, poly(C)-LNP complex was used as negative control.
At the indicated time points, approximately 100 μL of blood was collected with EDTA-coated capillary tubes from each mouse and then transferred to an EDTA-coated tube. The collected blood samples were centrifuged at 2000 g for 10 min, followed by transferring the resulting plasma into another tube. The hEPO levels in the plasma samples were measured by Human Erythropoietin (EPO) ELISA kit [LEGEND MAX, 442907]. Final concentrations for hEPO were adjusted based on the volume and dilution fold.

reticulocytes = assay: Plasma reticulocyte counting by flow cytometry; format: in vivo; conditions: mice; day 6 post-administration
Procedure: as §2
10 μL […] sample was added into 1 mL of the Reticulocyte Reagent [BD Bioscience] at the indicated time points and the mixture was incubated at room temperature for 30 minutes with protection from light. The samples were analyzed with Beckman CytoFLEX LX Flow Cytometer with 100,000-event records for each sample. Thiazole orange positive cells are defined as reticulocytes.

[3] = tested on: plasma alanine transaminase (ALT); assay: In vivo toxicity assay: plasma ALT ELISA; conditions: mice; hEPO mRNA-LNP groups
Procedure: as §1

eIF4E = eIF4E (UniProt P06730 P06730:1-217); assay: EMSA; 50 mM KCl, 10 mM Tris-HCl pH 7.6, 4 C; confirmed by competitive EMSA against mono-capped (FIG. 9H); conditions: tags: His tag; Cayman Chemical 25150; label: AF647-cytidine; branched
Sequence of eIF4E (P06730 whole entry, one chain of several): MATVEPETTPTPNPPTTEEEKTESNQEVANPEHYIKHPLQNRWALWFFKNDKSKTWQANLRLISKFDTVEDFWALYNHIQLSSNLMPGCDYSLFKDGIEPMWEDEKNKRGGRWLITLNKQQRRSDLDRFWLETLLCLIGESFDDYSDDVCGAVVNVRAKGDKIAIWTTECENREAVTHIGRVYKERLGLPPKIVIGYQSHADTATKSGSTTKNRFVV
Procedure: Capped oligonucleotides were labeled on the 3′ end using AF647 labeled cytidine-5′-phosphate-3′-(6-aminohexyl) phosphate [Jena Bioscience, NU-1706-AF647] and T4 RNA ligase ligated AF647-labeled cytidine onto the capped oligos using manufacturer's protocols. Oligos were then incubated in the binding buffer (1 mM DTT, 50 mM KCl, 10 mM Tris-HCl (pH 7.6), Novex Hi-Density TBE Sample Buffer [Invitrogen, LC6678]) with varying eIF4E-His [Cayman Chemical Inc, 25150] concentrations prepared by sequential dilutions from the stock solution. The oligos and […] were incubated at 4° C. for 30 mins and characterized by EMSA with Novex TBE Gels, 4-20% [Invitrogen, EC6225BOX] at 4° C. AF647 labeled oligos were imaged with BioRad ChemiDoc MP Imaging System [12003154] and band intensities were quantified using ImageJ. For Kd calculation, the proportions of bound were plotted against eIF4E concentration using GraphPad Prism (Specific binding with Hill slope).
To gain insights into the mechanism of how the topologically branched internal cap initiates mRNA translation, Applicant used fluorophore-labeled mono- or dual-capped oligonucleotides and measured their affinity to eIF4E through EMSA.

[4] = target: tRNA guanine transglycosylase (TGT) (UniProt P0A847 P0A847:1-375); assay: site-specific preQ1-azide labeling of hairpin in circRNA; 20 mM MgCl2, pH 7.3, 37 C; conditions: tags: His tag, expressed in E. coli
Sequence of tRNA guanine transglycosylase (TGT) (P0A847 whole entry, one chain of several): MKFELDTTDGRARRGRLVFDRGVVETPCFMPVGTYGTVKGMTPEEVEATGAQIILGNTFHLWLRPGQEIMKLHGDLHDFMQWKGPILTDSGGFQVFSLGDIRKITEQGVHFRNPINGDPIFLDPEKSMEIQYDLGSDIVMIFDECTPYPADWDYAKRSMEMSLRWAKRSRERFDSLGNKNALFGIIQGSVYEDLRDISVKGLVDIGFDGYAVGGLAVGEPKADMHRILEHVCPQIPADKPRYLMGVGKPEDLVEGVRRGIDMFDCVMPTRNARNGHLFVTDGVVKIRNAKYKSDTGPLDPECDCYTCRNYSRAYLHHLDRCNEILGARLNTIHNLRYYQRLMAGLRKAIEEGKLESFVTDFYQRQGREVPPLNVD
Procedure: CircRNA bearing a TGT hairpin was synthesized as described above. TGT enzyme was expressed in E. Coli as previously described in Alexander et al. “Site-specific covalent labeling of RNA by enzymatic transglycosylation.” J. Am. Chem. Soc. […] To label the circRNA with preQ1-azide, 1 μM of circRNA, 100 µM of preQ1-azide, 10 μM of TGT, 10 μL of SUPERase-In RNase inhibitor were incubated in 1× TGT reaction buffer (100 mM HEPES, pH 7.3, 5 mM DTT, and 20 mM MgCl₂) in a total of 100 μL reaction at 37° C. for 2 hours. The labeled circRNA was purified and subjected to click reaction with Bn7G-capped alkyne labeled oligo using the general condition for click reaction for 30 mins. The circRNA was then subjected to RP-HPLC purification to remove the linearized portions (method 3), pooled and desalted, and subjected to another round of RP-HPLC purification to isolate the QRNA product (method 4). QRNA product was characterized by RNase H assay with 2 primers upstream/downstream the TGT site.

Molecule: SILAC modified 20-nt oligo
- binding signal (fold enrichment) (eIF4E (Homo sapiens)): 15.2
- binding signal (fold enrichment) (XRN2 (Homo sapiens)): 10.2
- binding signal (fold enrichment) (CASC3 (Homo sapiens)): 5.4
- binding signal (fold repulsion) (eIF2B (Homo sapiens)): 5.1
- binding signal (fold repulsion) (NCBP1 (Homo sapiens)): 32.8
- binding signal (fold enrichment) (eIF3A (Homo sapiens)): 5.8
- binding signal (fold enrichment) (eIF4G1 (Homo sapiens)): 42.1
- binding signal (fold enrichment) (PABPC4 (Homo sapiens)): 5.5
- binding signal (fold enrichment) (eIF4G3 (Homo sapiens)): 27.9
- binding signal (fold enrichment) (eIF4A1 (Homo sapiens)): 2.5
- binding signal (fold repulsion) (DHX15 (Homo sapiens)): 15.1
- binding signal (fold enrichment) (PABPC1 (Homo sapiens)): 5.5
- binding signal (fold enrichment) (PARN (Homo sapiens)): 8

Molecule: construct 39: two LNAm7G caps; /5Phos/+AmGmAmGmAmUrArA/3AzideN/ clicked to /5Phos/+AmGmAmUmAmArA/i50CTdU/rArArArArArA (SEQ ID NO: 50) (AGATAAATAAAAAA; two LNA-m7G caps; branched click linkage; 2'-OMe; modified_base 1 OTHER; 5'-phosphate modified Locked nucleic acid; modified_base 2 OTHER; 2'-O-methyl modified nucleotide; modified_base 3 OTHER; modified_base 4 OTHER; modified_base 5 OTHER; modified_base 6 OTHER; modified_base 8 OTHER; 5-Octadiynyl modified uracil; m)
- Protein expression boost vs conventional linear mRNA with only m7G-rG cap and m1Ψ (HeLa cells): 5.5~99 fold

Molecule: construct S20: hEPO mRNA, two LNAm7G caps, LNA-2OMe 5′ UTR, PS-2MOE_ddC tail, in LNP (SEQ ID NO: 137) (AGATAAATAAAAAA; mRNA with two LNA-m7G caps, LNA/2'-OMe UTR, PS-MOE ddC tail, in LNP, further chemistry not given here)
- Plasma TNF-α (immunogenicity) [1]: No significant changes
- Plasma hEPO expression remained detectable until [2]: 6 days
- Time of peak plasma hEPO expression [2]: 6 h
- Peak plasma hEPO expression ([2]; 6 hours): 6009±578 mlU/mL
- Increase in reticulocyte counts compared to poly(C)-LNP-treated group (reticulocytes): 64%
- Reticulocytes, % of total red blood cells (reticulocytes): 6.4±0.2%
- Plasma ALT (toxicity) [3]: No significant changes

B1: 2xm7G dual-capped branched (31) (ssRNA)
RNA 1: AGAUAAAUAAAAAA
RNA 2: AGAGAUAA
modifications: m7G cap on both 5' ends; second strand 3'-azide clicked to 5-octadiynyl-dU at position 8 of first strand
- Kd (eIF4E): 1410 nM

B2: TGT recognition hairpin (ssRNA)
RNA: GCAGACUGUAAAUCUGC
- binding result [4]: binds
